Patent publication US20240409618A1

Target: SARS-CoV-2 spike protein (isolate USA-WA1/2020) on pseudotyped virus (SARS-CoV-2 (USA-WA1/2020)) (UniProt P0DTC2)
Assay: cell-based or functional assay

DMAb 2130_FcTM (antibody)
serum potency (IC50), neutralization of WA1/2020 pseudovirus: 1 to 2 ng/mL
